{"source": "the DeepSol protein solubility set"}
{"experiment": "soluble on expression in E. coli; label from the status in PepcDB or PDB records"}
{"sequence": "GSMIKLFSLKQQKKEEEKGSSKKASAAQLRIQKDINELNLPKTCDISFSDPDDLLNFKLVICPDEGFYKSGKFVFSFKVGQGYPHDPPKVKCETMVYHPNIDLEGNVALNILREDWKPVLTINSIIYGLQYLFLEPNPEDPLNKEAAEVLQNNRRLFEQNVQRSMRGGYIGSTYFERCLK", "soluble on expression in E. coli": "soluble"}
{"sequence": "MLPERVLEILREMKRERIKGASWLAKKGAEAFLTLAEELDESLLEDAIMELREEVVKVNPSMASLYNLARFIPVTNRRDILKSRALEFLRRMEEAKRELASIGAQLIDDGDVIITHSFSSTVLEIIRTAKERKKRFKVILTESSPDYEGLHLARELEFSGIEFEVITDAQMGLFCREASIAIVGADMITKDGYVVNKAGTYLLALACHENAIPFYVAAETYKFHPTLKSGDVMLMERDLIRGNVRIRNVLFDVTPWKYVRGIITELGIVIPPRDIQ", "soluble on expression in E. coli": "soluble"}
{"sequence": "MSTPFKMERGVKYRDAAKTSIIPVKNIDPNQDLLKKPEWMKIKLPASSAKIESIKNGMRRHGLHSVCEEASCPNLHECFNHGTATFMILGAICTRRCPFCDVAHGKPLPPDPEEPQKLAETIQDMKLKYVVITSVDRDDLPDRGAGHFSECVKAVRELNPNIKIEILVPDFRGRITQALEKLKDNPPDVFNHNLENVPRLYKEIRPGADYEWSLKLLREFKEIFPNIPTKSGLMVGLGETNEEILQVMQDLRDNGVTMLTLGQYLQPSRHHLPVARYVPPTEFDEFRDKANEMGFEHAACGPFVRSSYHADLQASGGLVKLEHHHHHH", "soluble on expression in E. coli": "not soluble"}
{"sequence": "MGSDKIHHHHHHMNYTDTLKSVDLVLATGEVPLIIGESGIGKTALAKELAQQNQWSLVIINGNLLKEGEIGGLPTIESYVFSGPEAVNPLAATAAKTVGNEQGILQEKKSTVYAVHHKLREIDEAIARGQTVLLFIDEINRCEHTVQQELMNLILNREINGYILPEGVKILAAMNPSSKYGSDFDYQVVDMDAAQENRFVWLFMKPDHKQWIDWAIGAGIEPKVIEFISTFPDYLHKINEDDLRATPRSYERISSSYKIYQENKDSIPRSVFLNVVKGNVGRVIAEEFVNFAEADYSPLIAYDDIFSGTSLPESLRDKVKEESHTRLYLSARNILQTLESHLSKTPANAPDHAQSSMDRLVAFLKLYPVDLKIGIMKDIRSSYPEIYRQAIENEGFVDSYFESYGSLR", "soluble on expression in E. coli": "not soluble"}
{"sequence": "MGSDKIHHHHHHMRVLIINTSERIGGAAVAAGRLMESLKNNGIKAKMLVRDKQTDQISVVGLKGSWLHVWKFMWERIVIWKANRFKKNDLFAVDIANTGTDITSLPEFQQADVIHLHWINQGMLSLNTIRKILTSGKPVVWTMHDMWPCTGICHYARECKNYEQECHHCPYIYGGGGKKDLSTRIFRKKKEIYSQASITFVGCSRWLAEKAKVSGLLTGQTVISIPNAINTNLFKPHNKQEARRKCRLPQEGKLILFGSVKITDKRKGIDYLIEACKLLAEKHPEWKESLGVVVFGNQSQQLQDLIPFRVYPLPYIKNEHELVDIYNAVDLFAIPSLEENLPNMVMEAMSCGVPCVGFNTGGIPEMIDHLHNGYVAQRKSSEDLANGIHWVLTEPEYAELSAQACRKAIGNYSESIIAKKYTEVYNKITGKYA", "soluble on expression in E. coli": "not soluble"}
{"sequence": "MHVVYPGSFDPLTNGHLDVIQRASRLFEKVTVAVLENPSKRGQYLFSAEERLAIIREATAHLANVEAATFSGLLVDFVRRVGAQAIVKGLRAVSDYEYELQMAHLNRQLYPGLETLFILAATRYSFVSSTMVKEIARYGGDVSKLVPPATLRALKAKLGQ", "soluble on expression in E. coli": "soluble"}
{"sequence": "DQQLVDQLSQLKLNVKMLDNRAGENGVDCAALGADWASCNRVLFTLSNDGQAIDGKDWVIYFHSPRQTLRVDNDQFKIAHLTGDLYKLEPTAKFSGFPAGKAVEIPVVAEYWQLFRNDFLPRWYATSGDAKPKMLANTDTENLDQFVAPFTGDQWKRTKDDKNILMTPASRFVSNADLQTLPAGALRGKIVPTPMQVKVHAQDADLRKGVALDLSTLVKPAADVVSQRFALLGVPVQTNGYPIKTDIQPGKFKGAMAVSGAYELKIGKKEAQVIGFDQAGVFYGLQSILSLVPSDGSGKIATLDASDAPRFPYRGIFLDVARNFHKKDAVLRLLDQMAAYKLNKFHFHLSDDEGWRIEIPGLPELTEVGGQRCHDLSETTCLLPQYGQGPDVYGGFFSRQDYIDIIKYAQARQIEVIPEIDMPAHARAAVVSMEARYKKLHAAGKEQEANEFRLVDQTDTSNTTSVQFFNRQSYLNPCLDSSQRFVDKVIGEIAQMHKEAGQPIKTWHFGGDDAKNIRLGAGYTDKAKPEPGKGIIDQSNEDKPWAKSQVCQTMIKEGKVADMEHLPSYFGQEVSKLVKAHGIDRMQAWQDGLKDAESSKAFATSRVGVNFWDTLYWGGFDSVNDWANKGYEVVVSNPDYVYMDFPYEVNPDERGYYWGTRFSDERKVFSFAPDNMPQNAETSVDRDGNHFNAKSDKPWPGAYGLSAQLWSETQRTDPQMEYMIFPRALSVAERSWHRAGWEQDYRAGREYKGGETHFVDTQALEKDWLRFANILGQRELAKLDKGGVAYRLPVPGARVAGGKLEANIALPGLGIEYSTDGGKQWQRYDAKAKPAVSGEVQVRSVSPDGKRYSRAEKV", "soluble on expression in E. coli": "soluble"}
{"sequence": "MGSDKIHHHHHHLDELRSGLDKPSHFRLGLAMWSHSNWQESVYGHGIKQAERLARYATIFNTVEGNTSFYATPAQQTVMNWHSATPDDFRFTFKLPQTITHQRLLQHCGQELKDFFQVMAPLIDKTGIWKIQLPAHFGPENLPVLAQFLNQVPQGLTYGVEVRHAAFFAKGDAERALNRLLIDKKVNRIIMDSRPLFALPPSNAAIIDAHKKKPRVPVHAIATANNPVVRFIGQPDDAVAQLAQQGVSALPKNNDAFFDNWLAQLPLWLAEGREPYLFIHTPDNETAPELAIRLYQTLRSQIAAQIQLAELSLLEKIPEETSTQMGLAW", "soluble on expression in E. coli": "not soluble"}
{"sequence": "GAMGQTTFTELMQQLFLKLGLNHQVNENDVYTFEVDGHIQVLIACYHQQWVQLFSELGADLPTNDNLFGEHWPAHVQGRLDGKSILWSQQSLVGLDIDEMQAWLERFIDDIEQRKEPQNTKFQPNSTSPILFI", "soluble on expression in E. coli": "soluble"}
{"sequence": "MRIFPVFLLTFSLFLIKEEIVTAEVKVSAPVVNQSGIKLNLERQFTGSDVAINRIHFSPDGQFLLTAAADGVGTLWTKEGEMLGQLQGQKPPMFNARLSPDRQILITTGYDGTIRLWNLQGELLEEQQPHRAAVADAIFSPDSQIIVTCSDDGQTKIFTRQGQEIASVLKSGTARNLAYHPQGLLIASVSDSGSLHLINPNGKIEREISTGQGRINNVNFSPNGEQLLTSGINGSAKLWNLAGELIHEYKVVPTGWVNSAQFYPKGEWLATASDDGTIRFWQKDGQLIYELPLVNARLTSLSFSPDGKQLAATSSQGQVWVFNLSYLEHHHHHH", "soluble on expression in E. coli": "not soluble"}
{"sequence": "MSLSIRSLFGGLREKILGKNMKIVFPEGNDERVVRAAARLKFEGLLEPIILGQSEEVRNLLTKLGFADQDYTIINPNEYADFDKMKEAFVEVRKGKATLEDADKMLRDVNYFGVMLVKMGLADGMVSGAIHSTADTVRPALQIIKTKPGISRTSGVFLMNRENTSERYVFADCAINIDPTAQELAEIAVNTAETAKIFDIDPKIAMLSFSTKGSGKAPQVDKVREATEIATGLNPDLALDGELQFDAAFVPETAAIKAPDSAVAGQANTFVFPDLQSGNIGYKIAQRLGMFDAIGPILQGLNKPVNDLSRGSSAEDIYKLAIITAAQAIESQGEGHHHHHH", "soluble on expression in E. coli": "soluble"}
{"sequence": "MSKLQGKKITPMPISAGITVVDLINEYFTAYNSARLREACKLLSQDIFQAGVTVGVSLSGAMTPAGFGVSALAPLIRHGFIDWMISTGANLYHDVHYALGFELFAGSPFLDDVKLREEGTIRIYDIIFGYDVLLETDAFIRKVLQAEPFQKRMGTAEFHYLLGKYVREVEKQLGVQHSCLLATAYEYGVPIYTSSPGDSSIGMNVAALALEGSRLVLDPAIDVNETSAIAYGARETDGKSAAVILGGGSPKNFLLQTQPQIHEVLGLEERGHNFFVQFTDARPDTGGLSGATPAEAVSWGKIDPDELPSTIVCYTDSTIAIPLVTAYVLNQCQARPVKRLYDRREALLETLQKDYLAAKDKPVVKEEGTEEVPSYRCGTPIKR", "soluble on expression in E. coli": "not soluble"}
{"sequence": "MGSDKIHHHHHHMKNNKNEKLKITIVSGFLGSGKTTFLTHYINELLKIDEKITVIMNEFGSFDVDGNHLSELVKVYPLLNGCVCCDMKSDLVQQIEMLSHNHETDHIIIEATGIAHPIELIMACQDPRIVQFVERPHVVSIVDALRFLQRQQYTDSTKRLMEEQLEVSDVLVVNKLDLISVEDRDALKNQLNEVNKYSSKIYTTYGQVNIEELSQFRDQLVMTHTHSHHHGINSMQYTFTTAIDRQLFYQFILRMPDNVLRLKGYVQFKDEPNVTYEFQYSFGMPDYEVINGDYPLTIVLIGEQLDVNRLKNKLDVLQFS", "soluble on expression in E. coli": "not soluble"}
{"sequence": "MSFTEDQEKIALEILSKDKHEFYEILKVDRKATDSEIKKAYRKLAIKLHPDKNSHPKAGEAFKVINRAFEVLSNEEKRSIYDRIGRDPDDRQMPSRGAASGFRGSAGGSPMGGGFEDMFFNSRFGGQRAGPPEDIFDFLFNAGGSPFGASPFGPSASTFSFGGPGGFRVYTNNRGGSPFMRQQPRSRQQQQQAEENAVNSQLKN", "soluble on expression in E. coli": "not soluble"}
{"sequence": "MKSEEAYSILDIVSESEGQGVVLTRSGSICVSFELREPECYSLTPEDIDRRDGMFREAFKFLPDGTYVHKQDVFLKERYCPDIAGGSFLDRADARHFRGRLYVSHTCVMHFVLSGLKSLEKAYISSPLSYKENLHKEDLARLDEFLEGVDNAVGIIRSMRDTEIAPMSGQEMRDFTAGYTTLFDAPGAVVDIHADTELRTGKKRARCFAVCDEIFLPDGSLDSCVRDDSLPPAGSLLYHPMLERLGMYLPYNHIVNQVVFFEGNGRLRERIARNIDIYGSNSGMSRSIKVQYQKLDELQQEILEENETLVRSFFSVCVFDESEAELEKADKKIRETLNLARLGYYIPGYENLAAVHFACVPGQIHLMPRKYLFLTTLPIALCFFLQCGSFRNDSEGIYVHDRMYQVPLRKDIWDAGKKRVNARNGMVIAGTGGGKSAFTLNLTQQLIEQDYTVVVVEFGKSFSQLCRLYPDISLHVDYDGRTALGINPFDLQGEELDNGSIEMLSGVVQKYWRHMFTKDESEKEVALTRFIQDYYENVREGHNFESFYNHVTEHYPEILARKHIPKDYFSLESFSLNCGEFLPGRRYENVCKDTGTDFSGKRFIVFELTQIKQDRFLSNLVMGMIFTVIQKKLLSDRRKRGVLIFDEYGETAQMVDTATGTGIHSSVAFCYQKIRKENGAVYTIIQNPDQLPENEHTKNIIANTDMLFVLPTKEVIYQSVIDRFRLTHPGQIALMKSMRNNFSGQRPYSECFMRLGEHYATVTRLEFSREKFLAFQTEGEIWSDLEEKNRRMSMEDAIEEYIREHQ", "soluble on expression in E. coli": "not soluble"}
{"sequence": "MSLEKKDNVFTFGNALSLYYKDYETPLIINTDDINQFKRSDKFYVLGNEFNAEIKYPYFMSSLYCIESGDIVMVYNAVELIQRPRLIIKALMALRKKYGFSKLIYLPGIGDPYIIPVLVYAGADLFDDTYIKEESINNIKYTMMGKTKSSDNNINDNLKFANDIISLLRSSIKTGTLREFVEKFQYSSRAIEMLRIIDNDYFSDYSMVFPVYTPYIKANTIESLNRPDIVSYRNYIKNDYSKPDVENLLILPCSAKKPYSKSKSHKKILSRIEKYRKYIHELIVTSPVGLVPRELESMYPAAFYDIPVIGLWYEDEKKMINDLLKSYLSKNRYKNIIAYIDEDLNFIKSSGNIILIEGNILSEEKLSELESTLRDLTINSPKMDHLFNYKSMLSYQFGTWIKDYLDDIKISRSYNMDMVTRNGRALFVFNEKLGRFTINRNGAGIFLNAGKKIVYIDDFKPTSYVFNAGIKDATDDIKPGDEVIIVHNNEIRGVGTALISYRAMIDLDHGAGVKVREGHHHHHH", "soluble on expression in E. coli": "soluble"}
{"sequence": "MGSDKIHHHHHHMHIAIASGKGGTGKTTLAVNLAVHAARSGHPTVLADCDVEEPNAHLFMPGEPVMTLTHSLPVPAVDKAKCLGDSCRKCVEECRFKALTWMKGVMAFSELCHGCGLCMMICPSGAITETTRPVGTVEIRTPQLPVPAGASAGAAALTLVSGRMRISEAMAPPLIREVKQQAHAVSAGTPNGLTFWDSPPGTSCPMISTVENADYSVLVTEPTPFGLHDLRLAVETLHTLGRPFGVVINRDGMGDGRVREYLDRHRIPLLGTVPHSPQAAQAVSSGRLLIDAVDGMTGCFDRLLHTVLRHAHNAAQHGQEKTA", "soluble on expression in E. coli": "not soluble"}
